Measured values reported in patent publication US20090142273A1, “Activatable cest MRI agent” (CASE WESTERN RESERVE UNIVERSITY, priority 2006, published 2009).

How the values were obtained:
[1] = target: T1, caspase-3 (Homo sapiens, UniProt P42574); assay: […] spectra of DEVD-(Tm-DOTA) amide before and after adding caspase-3; type: biochemical
T1 sequence (P42574 29-175 limits assumed): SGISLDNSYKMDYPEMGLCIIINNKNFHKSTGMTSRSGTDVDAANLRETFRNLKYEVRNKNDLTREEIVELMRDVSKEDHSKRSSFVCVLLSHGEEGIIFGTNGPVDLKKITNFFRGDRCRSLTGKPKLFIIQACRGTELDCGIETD
T1 sequence (P42574 176-277 limits assumed): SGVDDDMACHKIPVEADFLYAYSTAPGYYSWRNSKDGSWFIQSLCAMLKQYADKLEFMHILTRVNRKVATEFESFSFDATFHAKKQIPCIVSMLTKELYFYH
Excerpt: In one embodiment, the caspase-3 substrate DEVD (Asp-Glu-Val-Asp) was elongated using the amino group on one side arm of lanthanide ligand anchored on the polymer support. FIG. 9 illustrates the conversion of the DEVD-(Ln-DOTA) 90 to amino-(Ln-DOTA) 92 through cleavage by caspase-3. […] Accordingly, the enzymatic activity of caspase-3 can be detected by the change in […] effect caused by this biotransformation.
FIG. 16 illustrates […] spectra 998 and MR parametric map 999 of DEVD-(Tm-DOTA) amide 155 before and after adding caspase-3. […] spectra were acquired at 37° C. and pH 7.4 with a continuous wave saturation pulse applied at 31 μT for 4 seconds. The deconvoluted […] spectrum of the product after reaction, showing a […] effect at +8 ppm, is also shown. MR images were acquired at 37° C. and pH 7.4 with a Bruker Biopsin 9.4 T MR scanner. A MSME T1 method was used with TR/TE=1623/10.9 ms and a train of Gaussian-shaped saturation pulses applied at 25 μT for 1.106 s, and with saturation offsets at −51 ppm and +51 ppm. The parametric map was obtained by subtracting the MR image with a saturation offset at −51 ppm from the MR image with saturation offset at +51 ppm. The magnitude of the scale of the original MR images was used as the scale for this parametric map, to properly represent the difference in MRI contrast obtained with different saturation offsets. The […] spectrum of 155 (25 mM, pH 7.4) was recorded by applying selective saturation in 1 ppm increments from +100 ppm to −100 ppm. A […] effect was detected at −51 ppm, which was assigned to the amide most proximal to the lanthanide ion in 155, based on identical results obtained from a similar compound, Tm3^+-DOTAMGly. After 48 nM of caspase-3 was added and the mixture was incubated at 37° C. and pH 7.4 for 1 hour, the […] effect at −51 ppm was decreased and an asymmetrical shape in the […] spectrum was observed near water. This asymmetry was analyzed by deconvolution to show a […] effect at +8 ppm.

[2] = target: T1, caspase-3; assay: MR parametric map of DEVD-(Tm-DOTA) amide before and after reaction with caspase-3; type: biochemical; conditions: saturation at −51 ppm vs +51 ppm, 9.4 T, 37° C., pH 7.4
Experimental: FIG. 16 illustrates […] spectra 998 and MR parametric map 999 of DEVD-(Tm-DOTA) amide 155 before and after adding caspase-3. […] spectra were acquired at 37° C. and pH 7.4 with a continuous wave saturation pulse applied at 31 μT for 4 seconds. The deconvoluted […] spectrum of the product after reaction, showing a […] effect at +8 ppm, is also shown. MR images were acquired at 37° C. and pH 7.4 with a Bruker Biopsin 9.4 T MR scanner. A MSME T1 method was used with TR/TE=1623/10.9 ms and a train of Gaussian-shaped saturation pulses applied at 25 μT for 1.106 s, and with saturation offsets at −51 ppm and +51 ppm. The parametric map was obtained by subtracting the MR image with a saturation offset at −51 ppm from the MR image with saturation offset at +51 ppm. The magnitude of the scale of the original MR images was used as the scale for this parametric map, to properly represent the difference in MRI contrast obtained with different saturation offsets. The […] spectrum of 155 (25 mM, pH 7.4) was recorded by applying selective saturation in 1 ppm increments from +100 ppm to −100 ppm. A […] effect was detected at −51 ppm, which was assigned to the amide most proximal to the lanthanide ion in 155, based on identical results obtained from a similar compound, Tm3^+-DOTAMGly. […] This asymmetry was analyzed by deconvolution to show a […] effect at +8 ppm. […]

change of PARACEST effect at −51 ppm after caspase-3 ([1]; 48 nM caspase-3, 37° C., pH 7.4, 1 hour): decreased
PARACEST effect after cleavage by caspase-3 (free amine) ([1]; 48 nM caspase-3, 37° C., pH 7.4, 1 hour, by deconvolution): +8 ppm
PARACEST effect, MR saturation frequency of amide ([1]; before caspase-3, 25 mM, pH 7.4, 37° C., 31 μT for 4 seconds): −51 ppm
change in water MR signal after reaction with caspase-3 [2]: no significant change
decrease in water MR signal due to the PARACEST effect before the enzymatic reaction [2]: ~14.5%
Substance: DEVD-(Tm-DOTA) amide [compound 155]
